Reference: PMC11873960, “Coupled Heterogeneity to Dimeric Site-Specific Binding by the POU-Family Transcription Factor OCT2” (The Journal of Physical Chemistry. B, 2025)

T1: OCT2 DBD (POU domain) (Homo sapiens, UniProt P09086 195-357)
T1 sequence: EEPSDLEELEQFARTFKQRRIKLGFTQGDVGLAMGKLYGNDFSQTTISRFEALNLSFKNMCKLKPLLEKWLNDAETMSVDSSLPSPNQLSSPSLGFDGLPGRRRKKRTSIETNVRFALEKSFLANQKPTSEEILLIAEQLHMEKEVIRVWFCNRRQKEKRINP

B1: MORE 22-bp, HEX-labelled (dsDNA)
DNA 1: TCCTCATGCATATGCATGAGGA
DNA 2: TCCTCATGCATATGCATGAGGA
B2: OCT2 DBD (DNA-binding domain, POU domain, of human POU factor OCT2) (domain or fragment, UniProt P09086 195-357, looked up)
chain: T1 sequence
notes: Cloned into NdeI/BamHI of pET15b; residues of the vector may be left at the N-terminus after thrombin cleavage (surmised); the linker is not resolved in the structure; also called POU2F2; OCT DBD; source: E. coli BL21(DE3)pLysS, purified (Ni-NTA, thrombin cleavage, Sepharose SP, Superdex 75); not shown: His6, N-terminal, cleaved

How the values were obtained:
OCT2 DBD (POU domain) [1] = molecular target: T1, OCT2 DBD (POU domain); experiment: fluorescence anisotropy; 0.30 M Na+, 1 U poly[d(I-C)]; FP: 5 nM probe, 10 mM Bis-Tris pH 6.5, 0.01% BSA, 0.15-0.35 M NaCl, 25 C overnight, Hill fit with nH = 2 (macroscopic KD of dimer); EMSA: 10 nM DNA, PBS, 25 C o; settings: protein: recombinant; tags: N-terminal His6 removed by thrombin; chain copies: 2; label: 5'-HEX; blunt; self-complementary, 2 copies of the strand
OCT2 DBD (POU domain) [2] = molecular target: T1, OCT2 DBD (POU domain); experiment: fluorescence anisotropy; 0.15 M Na+, no poly[d(I-C)]; text gives 3.2 +/- 1.4 nM; FP: 5 nM probe, 10 mM Bis-Tris pH 6.5, 0.01% BSA, 0.15-0.35 M NaCl, 25 C overnight, Hill fit with nH = 2 (macroscopic KD of dimer); EMSA: 10 nM DNA, PBS, 25 C o; settings: protein: recombinant; tags: N-terminal His6 removed by thrombin; chain copies: 2; label: 5'-HEX; blunt; self-complementary, 2 copies of the strand
OCT2 DBD (POU domain) [3] = molecular target: T1, OCT2 DBD (POU domain); experiment: fluorescence anisotropy; 0.20 M Na+, no poly[d(I-C)]; FP: 5 nM probe, 10 mM Bis-Tris pH 6.5, 0.01% BSA, 0.15-0.35 M NaCl, 25 C overnight, Hill fit with nH = 2 (macroscopic KD of dimer); EMSA: 10 nM DNA, PBS, 25 C o; settings: protein: recombinant; tags: N-terminal His6 removed by thrombin; chain copies: 2; label: 5'-HEX; blunt; self-complementary, 2 copies of the strand
OCT2 DBD (POU domain) [4] = molecular target: T1, OCT2 DBD (POU domain); experiment: fluorescence anisotropy; 0.15 M Na+, 1 U poly[d(I-C)]; FP: 5 nM probe, 10 mM Bis-Tris pH 6.5, 0.01% BSA, 0.15-0.35 M NaCl, 25 C overnight, Hill fit with nH = 2 (macroscopic KD of dimer); EMSA: 10 nM DNA, PBS, 25 C o; settings: protein: recombinant; tags: N-terminal His6 removed by thrombin; chain copies: 2; label: 5'-HEX; blunt; self-complementary, 2 copies of the strand
OCT2 DBD (POU domain) [5] = molecular target: T1, OCT2 DBD (POU domain); experiment: fluorescence anisotropy; 0.20 M Na+, 1 U poly[d(I-C)]; FP: 5 nM probe, 10 mM Bis-Tris pH 6.5, 0.01% BSA, 0.15-0.35 M NaCl, 25 C overnight, Hill fit with nH = 2 (macroscopic KD of dimer); EMSA: 10 nM DNA, PBS, 25 C o; settings: protein: recombinant; tags: N-terminal His6 removed by thrombin; chain copies: 2; label: 5'-HEX; blunt; self-complementary, 2 copies of the strand
OCT2 DBD (POU domain) [6] = molecular target: T1, OCT2 DBD (POU domain); experiment: fluorescence anisotropy; 0.35 M Na+, no poly[d(I-C)]; FP: 5 nM probe, 10 mM Bis-Tris pH 6.5, 0.01% BSA, 0.15-0.35 M NaCl, 25 C overnight, Hill fit with nH = 2 (macroscopic KD of dimer); EMSA: 10 nM DNA, PBS, 25 C o; settings: protein: recombinant; tags: N-terminal His6 removed by thrombin; chain copies: 2; label: 5'-HEX; blunt; self-complementary, 2 copies of the strand
OCT2 DBD (POU domain) [7] = molecular target: T1, OCT2 DBD (POU domain); experiment: fluorescence anisotropy; 0.175 M Na+, 1 U poly[d(I-C)]; FP: 5 nM probe, 10 mM Bis-Tris pH 6.5, 0.01% BSA, 0.15-0.35 M NaCl, 25 C overnight, Hill fit with nH = 2 (macroscopic KD of dimer); EMSA: 10 nM DNA, PBS, 25 C o; settings: protein: recombinant; tags: N-terminal His6 removed by thrombin; chain copies: 2; label: 5'-HEX; blunt; self-complementary, 2 copies of the strand
OCT2 DBD (POU domain) [8] = molecular target: T1, OCT2 DBD (POU domain); experiment: fluorescence anisotropy; 0.175 M Na+, no poly[d(I-C)]; FP: 5 nM probe, 10 mM Bis-Tris pH 6.5, 0.01% BSA, 0.15-0.35 M NaCl, 25 C overnight, Hill fit with nH = 2 (macroscopic KD of dimer); EMSA: 10 nM DNA, PBS, 25 C o; settings: protein: recombinant; tags: N-terminal His6 removed by thrombin; chain copies: 2; label: 5'-HEX; blunt; self-complementary, 2 copies of the strand
OCT2 DBD (POU domain) [9] = molecular target: T1, OCT2 DBD (POU domain); experiment: fluorescence anisotropy; 0.35 M Na+, 1 U poly[d(I-C)]; text gives 0.18 +/- 0.06 uM; FP: 5 nM probe, 10 mM Bis-Tris pH 6.5, 0.01% BSA, 0.15-0.35 M NaCl, 25 C overnight, Hill fit with nH = 2 (macroscopic KD of dimer); EMSA: 10 nM DNA, PBS, 25 C o; settings: protein: recombinant; tags: N-terminal His6 removed by thrombin; chain copies: 2; label: 5'-HEX; blunt; self-complementary, 2 copies of the strand
OCT2 DBD (POU domain) [10] = molecular target: T1, OCT2 DBD (POU domain); experiment: fluorescence anisotropy; 0.25 M Na+, 1 U poly[d(I-C)]; FP: 5 nM probe, 10 mM Bis-Tris pH 6.5, 0.01% BSA, 0.15-0.35 M NaCl, 25 C overnight, Hill fit with nH = 2 (macroscopic KD of dimer); EMSA: 10 nM DNA, PBS, 25 C o; settings: protein: recombinant; tags: N-terminal His6 removed by thrombin; chain copies: 2; label: 5'-HEX; blunt; self-complementary, 2 copies of the strand
OCT2 DBD (POU domain) [11] = molecular target: T1, OCT2 DBD (POU domain); experiment: fluorescence anisotropy; 0.30 M Na+, no poly[d(I-C)]; FP: 5 nM probe, 10 mM Bis-Tris pH 6.5, 0.01% BSA, 0.15-0.35 M NaCl, 25 C overnight, Hill fit with nH = 2 (macroscopic KD of dimer); EMSA: 10 nM DNA, PBS, 25 C o; settings: protein: recombinant; tags: N-terminal His6 removed by thrombin; chain copies: 2; label: 5'-HEX; blunt; self-complementary, 2 copies of the strand
OCT2 DBD (POU domain) [12] = molecular target: T1, OCT2 DBD (POU domain); experiment: fluorescence anisotropy; 0.25 M Na+, no poly[d(I-C)]; FP: 5 nM probe, 10 mM Bis-Tris pH 6.5, 0.01% BSA, 0.15-0.35 M NaCl, 25 C overnight, Hill fit with nH = 2 (macroscopic KD of dimer); EMSA: 10 nM DNA, PBS, 25 C o; settings: protein: recombinant; tags: N-terminal His6 removed by thrombin; chain copies: 2; label: 5'-HEX; blunt; self-complementary, 2 copies of the strand
[13] = molecular target: the molecule itself; experiment: native gel or EMSA; 0.2 kbp DNA fragment with a single MORE site (10 nM) incubated overnight at 25 °C with graded OCT2 DBD (2-fold dilutions from 1 uM) in PBS; 4-20% gradient polyacrylamide gel; dimer assembled on DNA

| Binder | Kd (OCT2 DBD (POU domain) [1]) | Kd (OCT2 DBD (POU domain) [2]) | Kd (OCT2 DBD (POU domain) [3]) | Kd (OCT2 DBD (POU domain) [4]) | Kd (OCT2 DBD (POU domain) [5]) | Kd (OCT2 DBD (POU domain) [6]) | Kd (OCT2 DBD (POU domain) [7]) | Kd (OCT2 DBD (POU domain) [8]) | Kd (OCT2 DBD (POU domain) [9]) | Kd (OCT2 DBD (POU domain) [10]) | Kd (OCT2 DBD (POU domain) [11]) | Kd (OCT2 DBD (POU domain) [12]) | stoichiometry N [13] |
| --- | --- | --- | --- | --- | --- | --- | --- | --- | --- | --- | --- | --- | --- |
| B1 | 71 ± 19 nM | 3.8 ± 1.4 nM | 29 ± 9 nM | 5.5 ± 1.3 nM | 16 ± 7 nM | 1200 ± 300 nM | 11 ± 4 nM | 9.7 ± 3.7 nM | 190 ± 60 nM | 41 ± 13 nM | 560 ± 100 nM | 88 ± 18 nM | – |
| B2 | – | – | – | – | – | – | – | – | – | – | – | – | 2 |
